Test [1] deals with T1, human E-selectin, cell-surface expressed (human, UniProt P16581 22-610).
T1 construct: also called CHO-human E-selectin cells; human CHO-E
T1 sequence: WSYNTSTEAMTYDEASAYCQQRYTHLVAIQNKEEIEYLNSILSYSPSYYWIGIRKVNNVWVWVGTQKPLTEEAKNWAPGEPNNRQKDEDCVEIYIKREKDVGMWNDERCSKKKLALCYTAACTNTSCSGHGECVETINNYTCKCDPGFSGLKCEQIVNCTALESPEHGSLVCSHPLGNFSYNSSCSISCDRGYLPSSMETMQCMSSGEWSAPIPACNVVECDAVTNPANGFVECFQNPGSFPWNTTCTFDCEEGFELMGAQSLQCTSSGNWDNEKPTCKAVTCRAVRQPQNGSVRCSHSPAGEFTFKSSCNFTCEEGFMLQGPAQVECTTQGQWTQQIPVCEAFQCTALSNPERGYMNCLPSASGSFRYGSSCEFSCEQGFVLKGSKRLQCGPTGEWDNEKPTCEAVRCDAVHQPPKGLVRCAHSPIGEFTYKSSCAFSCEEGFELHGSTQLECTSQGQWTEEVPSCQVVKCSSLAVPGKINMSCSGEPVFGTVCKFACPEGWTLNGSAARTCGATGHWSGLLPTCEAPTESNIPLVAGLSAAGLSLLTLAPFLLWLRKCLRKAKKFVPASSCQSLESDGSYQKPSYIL
Briefly: competition ELISA on CHO cells vs sialyl Lewis ligand-PAA-biotin/SA-HRP. The protocol: (§1) In a static ligand cellular adhesion assay, horse radish peroxidase (HRP) conjugated E-selectin ligand and E-selectin antibodies compete for binding to human or cynomolgus E-selectin expressed on Chinese hamster ovary (CHO) cells. The ability of anti-E-selectin antibodies to neutralize the ligand binding was assessed in a static neutralization assay using a competition enzyme-linked immunosorbent assay (ELISA) to evaluate the neutralization of the sialyl Lewis antigen to Chinese hamster ovary cells (CHO) engineered to express human or cynomolgus monkey E-selectin.
(§2) CHO cells expressing E-selectin were seeded at 12,500 cells per well into a 96 well tissue culture plate and incubated at 37° C., 5% CO₂ for 48 hours to form a confluent monolayer. Plates were subsequently washed twice with 200 μL of calcium magnesium free PBS. Anti-E-selectin antibodies, or an IgG1 isotype control, were added to the assay in the presence of a small synthetic conjugate of biotinylated, sialyl Lewis A polyacrylamide (Carbosynth LLC, OS45446) or sialyl Lewis X polyacrylamide (Glycotech, 01-045) with a streptavidin/horseradish peroxidase (100 μL total) and incubated at 37° C., 5% CO₂ for 2 hours. Plates were then washed twice with 200 μL of calcium magnesium free PBS. Following the incubation, the cells were washed twice with 200 μL of wash buffer containing 2 mM calcium chloride (50 mM TRIS [trisaminomethane], 150 mM sodium chloride; 0.05% polysorbate 20, pH 7.4; 2 mM of calcium chloride). Signal was developed by adding 100 μL of 1-Step Ultra TMB substrate (Thermo Scientific, 34028) and incubating for 30 minutes at room temperature. Reactions were stopped using 2 M of sulfuric acid and absorbance was read at 450 nm (Spectramax M5e). Data was analyzed and graphed using GraphPad Prism software (Version 8.0.2).
(In general: ELISA stands for enzyme-linked immunosorbent assay.)

The target in test [2] is T2, cynomolgus monkey E-selectin, cell-surface expressed (cynomolgus monkey, UniProt P16581 22-610 (human entry)).
T2 construct: also called CHO-cynomolgus monkey E-selectin cells; cynomolgus monkey CHO-E
T2 chain: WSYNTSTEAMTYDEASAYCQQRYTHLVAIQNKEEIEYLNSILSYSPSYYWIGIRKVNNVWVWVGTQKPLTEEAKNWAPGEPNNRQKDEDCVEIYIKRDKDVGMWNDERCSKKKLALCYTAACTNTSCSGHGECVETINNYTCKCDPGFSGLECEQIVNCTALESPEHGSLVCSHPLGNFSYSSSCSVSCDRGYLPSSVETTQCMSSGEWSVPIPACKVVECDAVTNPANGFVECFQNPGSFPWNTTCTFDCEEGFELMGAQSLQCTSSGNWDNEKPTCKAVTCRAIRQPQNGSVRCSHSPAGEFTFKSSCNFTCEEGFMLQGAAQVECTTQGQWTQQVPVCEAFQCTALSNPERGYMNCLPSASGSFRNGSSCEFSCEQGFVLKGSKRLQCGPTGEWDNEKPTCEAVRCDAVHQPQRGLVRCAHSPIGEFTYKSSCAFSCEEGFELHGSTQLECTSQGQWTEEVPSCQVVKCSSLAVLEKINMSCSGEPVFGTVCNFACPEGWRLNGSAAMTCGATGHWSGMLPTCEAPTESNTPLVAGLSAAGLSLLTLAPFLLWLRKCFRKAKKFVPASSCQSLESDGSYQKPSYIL
The description is as above. The protocol: as §1, §2

Test [3] has as its target T1, human E-selectin, cell-surface expressed. The experiment in a line: cell-based or functional assay.
The target of test [4] is T2, cynomolgus monkey E-selectin, …. The experiment in a line: flow cytometry, CHO cells. The protocol: Cells were maintained in growth medium at 37° C., 5% CO₂ and 95% air in a humidified incubator. Methotrexate or Zeocin were removed from the medium prior to culture for experiments. CHO-E selectin cells were detached from T-150 flasks using citric saline (135 mM KCl, 15 mM sodium citrate) and immediately re-calcified with the addition of CaCl₂) to the detached cells to a final concentration of 1 mM. Growth media was immediately added to the detached cells, then centrifuged at 300×g for 5 minutes at room temperature to pellet the cells. Cells were plated into 96-well round-bottom plates in cold CHO buffer consisting of phosphate buffered saline (PBS), pH 7.4 containing bovine serum albumin (BSA; Sigma-Aldrich) at final concentration of 1%, calcium chloride at final concentration of 1 mM, and sodium azide at a final concentration of 0.1%, for 5 minutes on wet ice. After incubation, the cells were centrifuged at 300×g for 2 minutes at 4° C. to remove the buffer.
After incubation, the antibodies were removed and the cells were washed three times by centrifugation at 300×g for 1 minute at 4° C. and resuspended in cold CHO buffer. The washed cells were resuspended and incubated for 30 minutes on wet ice with 100 μL of 1:1000 dilution of APC-conjugated AffiniPure F(ab′)₂ Fragment Goat Anti-human IgG, Fcγ (Jackson Immunoresearch). The cells were washed three or four times prior to resuspension in CHO buffer for flow cytometric analysis. A Becton Dickinson LSRFortessa instrument using 640 nanometer laser line was used to acquire cell fluorescence data. Geometric mean fluorescence of cells was analyzed by FlowJo software package (FlowJo, LLC) and plotted against antibody concentration. The estimated EC₅₀ values were calculated using nonlinear regression analysis in the GraphPad Prism suite.
For orientation: Flow cytometry measures light scatter and fluorescence of single cells or particles in a stream.

Results on two molecules are retold here after patent US20240076386A1 (Pfizer, published 2024).

B1: humanized anti-E-selectin antibody 0841 (antibody, human IgG1, kappa, V domains shown)
VH: EVQLVESGGGLVQPGGSLRLSCAASGYNIRSSYMHWVRQAPGKGLEWVARIDPANGNTIYAEKFKIRFTISADNAKNSAYLQMNSLRAEDTAVYYCAMDLYSTSEYWGQGTLVTVSS
VL: DIQMTQSPSSLSASVGDRVTITCKTSQNINRYLNWYQQKPGKAPKLLIYNANSLQTGVPSRFSGSGSGTDFTLTISSLQPEDFATYFCLQDNSWPLTFGQGTKVEIKR
notes: effector-null human IgG1, kappa
One may read the IC50 as the concentration that inhibits the measured activity by half. In general, EC50 refers to the concentration at which the effect is half-maximal. Turning to B1, the results for the IC50 in test [1] and in test [2] were 3.81 nM and 1.74 nM, respectively. For the same molecule, the “neutralization under physiological flow, HL-60 cell adhesion to CHO-human E-selectin cells IC50 (nM)” value in test [3] stood at 4.17 nM. The midpoint of the response in test [4], the EC50, lay at 1.54 nM.

B2: anti-E-selectin antibody 0164 chimera (antibody, human IgG1, kappa, V domains shown)
VH: EVQLQQSGAEFGKPGTSVKLSCKVSGYNIRSSYMHWVNQRPGKGLEWIGRIDPANGNTIYAEKFKIKAILTADSSSNTAYMQLSQLKSDDTAIYFCAMDLYSTSEYWGQGVMVTVSS
VL: DIQMTQSPSFLSASVGDRVTINCKTSQNINRYLNWYQQKLGEAPKLLIYNANSLQTGIPSRFSASGSGTDFTLTINSLQPEDVATYFCLQDNSWPLTFGSGTKLEIKR
notes: rat VH/VL on effector-null human IgG1 and human kappa
As to B2, the IC50 in test [1] is 5.17 nM; in test [2] it was 2 nM. Moreover, the “neutralization under physiological flow, HL-60 cell adhesion to CHO-human E-selectin cells IC50 (nM)” value in test [3] turned out to be 3.73 nM. Also, the EC50 in test [4] amounted to 1.73 nM.
